Data reported in patent US12123876B2, “Antibody binding to HEG1 and use of the antibody for detection and treatment of mesothelioma” (Kanagawa Prefectural Hospital Organization, priority 2016, dated 2024).
“Also recorded” adds a separate entry of the source.

Columns and labels:
[1] = test system: Lung carcinoma, other carcinomas, soft tissue sarcoma, bone sarcoma; assay: Immunohistological staining of other carcinomas and sarcomas (detection specificity to mesothelioma); design: species or system human
Procedure: AMeX-fixed cell precipitates or formalin-fixed tissues were paraffin-embedded to prepare thin sections. Each of the sections was fixed to a microscope slide, and subjected to deparaffinization and dehydration with xylene and ethanol, followed by activation of an antigen under different conditions. Each section was treated with 3% hydrogen peroxide for 5 minutes to deactivate endogenous peroxidase, and then washed with PBS and blocked with 0.5% casein for 10 minutes. After 100 μL of a solution containing a primary antibody was added to each section and treated at room temperature for 2 hours, the section was washed with PBS and allowed to develop color by using a Histofine Simple Stain MAX-PO (Multi) ([…] BIOSCIENCE INC.), Ventana ultraView DAB universal kit (Roche Diagnostics K. K.), or the EnVision+kits. Each section was stained with hematoxylin and then dehydrated, and encapsulated with Malinol (MUTO PURE CHEMICALS CO., LTD.) to observe under a microscope. The conditions for activation of an antigen were as follows: at 98° C. for 40 minutes for calretinin, mesothelin, and the SKM9-2 antigen; and at 95° C. for 64 minutes for cytokeratin 5/6 (CK5/6), podoplanin, and Wilms' tumor gene product 1 (WT-1). The following activation solutions were used: 10 mM Tris buffer (pH 9.0) containing 1 mM ethylenediamine tetraacetate (EDTA) for calretinin, CK5/6, and podoplanin; and 10 mM citrate buffer (pH 6.0) containing 0.1% TWEEN® 20 (polyethylene glycol sorbitan monolaurate, polyoxyethylenesorbitan monolaurate) for WT-1, mesothelin, and the SKM9-2 antigen. The following primary antibodies were used: a rabbit anti-calretinin polyclonal antibody (PAD:DC8) (Life Technologies Japan Ltd., Tokyo, Japan) for calretinin; a mouse anti-cytokeratin 5,6 monoclonal antibody (D5/16B4) ([…] BIOSCIENCE INC.) for CK5/6; a mouse anti-human mesothelin monoclonal antibody (5B2) (Leica Microsystems, Inc., Bannockburn, IL) for mesothelin; a mouse anti-podoplanin monoclonal antibody (D2-40) (Roche Diagnostics K. K.) for podoplanin; and a mouse anti-human WT-1 monoclonal antibody (6F-H2) (Roche Diagnostics K. K.) for WT-1.
Subsequently, the detection characteristics of the SKM9-2 antibody for other carcinomas were compared with those of other antibodies to confirm the detection specificity to mesothelioma. In this measurement, the detection specificity of each antibody was measured for several carcinomas: gastric carcinoma, colorectal carcinoma, breast carcinoma, ovarian carcinoma, renal cell carcinoma, and urothelial carcinoma, which are more likely to present problems in differential diagnosis of mesothelioma, as “Other carcinomas”; carcinosarcoma, liposarcoma, rhabdomyosarcoma, leiomyosarcoma, fibrosarcoma, synovial sarcoma, gastrointestinal stromal sarcoma (GIST), Ewing's sarcoma, alveolar soft part sarcoma (ASPS), solitary fibrous tumor, malignant peripheral nerve sheath tumor (MPNST), angiosarcoma, epithelioid hemangioendothelioma, epithelioid angiosarcoma, and biphasic synovial sarcoma as “Soft tissue sarcoma”; and chondrosarcoma and osteosarcoma as “Bone sarcoma”.

[2] = test system: HEG1 protein (purified from ACC-MESO4 or recombinant soluble HEG1); assay: Western blot / dot blot reactivity of antibodies with HEG1 protein; format: binding, human
Procedure: A massive amount of ACC-MESO4 was cultured, and purification of an antigen from the cell lysate was performed. Cells from 240 10-cm dishes were solubilized with 50 mM Tris buffer (pH 8.0) containing 1% TRITON™ X-100 (detergent), 1% CHAPS, 1 mM EDTA, 50 mM NaCl, and protease inhibitor (Complete, Roche Life Science), and then centrifuged. The resulting supernatant was dialyzed with 20 mM acetate buffer (pH 5.0) at 4° C. for 18 hours to afford an acidic precipitate. The precipitate was extracted with 20 mM Tris buffer (pH 7.2) containing 0.1% TWEEN® 20 (polyethylene glycol sorbitan monolaurate, polyoxyethylenesorbitan monolaurate) and 150 mM NaCl and centrifuged, and the resulting supernatant was concentrated by using an Amicon Ultra-15, 100 kDa (Merck Millipore) and subjected to solution exchange with 20 mM Tris buffer (pH 8.0) containing 6 M guanidine hydrochloride. To the concentrated solution, tris(2-carboxyethyl)phosphine hydrochloride with a final concentration of 10 mM was added, and the resultant was heated at 60° C. for 30 minutes, and iodoacetamide with a final concentration of 40 mM was then added thereto, and reacted at room temperature for 3 hours. The reaction solution was subjected to gel filtration chromatography (SUPEROSE® 6 INCREASE (prepacked column) 10/300 GL (GE Healthcare)) in 20 mM Tris buffer (pH 8.0) containing 6 M guanidine hydrochloride and 0.05% TWEEN® 20 (polyethylene glycol sorbitan monolaurate, polyoxyethylenesorbitan monolaurate), and fractions positive for dot blot were collected. The sample was dialyzed with 25 mM phosphate buffer (pH 7.0) containing 4 M urea and 0.05% TWEEN® 20 (polyethylene glycol sorbitan monolaurate, polyoxyethylenesorbitan monolaurate) at room temperature overnight, and applied to a Mono Q 5/50 GL (GE Healthcare). The column was washed with 25 mM phosphate buffer (pH 7.0) containing 4 M urea and 0.05% TWEEN® 20 (polyethylene glycol sorbitan monolaurate, polyoxyethylenesorbitan monolaurate), and thereafter elution was performed with an NaCl salt concentration gradient of 0 to 1 M. Fractions strongly positive for dot blot were collected, and dialyzed with 25 mM phosphate buffer (pH 7.2) containing 150 mM NaCl and 0.05% TWEEN® 20 (polyethylene glycol sorbitan monolaurate, polyoxyethylenesorbitan monolaurate) at room temperature overnight, and applied to 1 mL of WGA-SEPHAROSE® (wheat germ agglutinin-crosslinked, beaded-form of agarose) (J-OIL MILLS, Inc.). After washing with buffer, elution was performed with 25 mM phosphate buffer (pH 7.2) containing 0.2 M N-acetylglucosamine, 150 mM NaCl, and 0.05% TWEEN® 20 (polyethylene glycol sorbitan monolaurate, polyoxyethylenesorbitan monolaurate), and the eluent was concentrated with a Centricon (YM-30) (Millipore). Gel filtration chromatography (SUPEROSE® 6 INCREASE (prepacked column) 10/300 GL (GE Healthcare)) was performed in 25 mM phosphate buffer (pH 7.2) containing 3 M GdnHCI and 0.5% CHAPS, and fractions strongly positive for dot blot were dialyzed with 20 mM NH4HCO3 containing 0.5% CHAPS at room temperature overnight to afford a purified antigen.
The dot blot was performed as follows. A PVDF membrane (Immobilon-P, Merck Millipore) was soaked in methanol, and then washed and impregnated with pure water. The hydrophilized PVDF membrane was placed on a filter paper containing water to avoid air inclusion, removed of excessive moisture, and soaked with 1 to 5 μL of the sample in dots fed by a micropipette. After the membrane was dried at room temperature overnight, the membrane was hydrophilized again with methanol and pure water, and blocked with 20 mM Tris buffer (pH 7.4) containing 5% skim milk, 0.1% TWEEN® 20 (polyethylene glycol sorbitan monolaurate, polyoxyethylenesorbitan monolaurate), and 150 mM NaCl (blocking buffer) at room temperature for 1 hour. […]

B1: SKM9-2 antibody: mouse monoclonal IgG1 kappa antibody binding glycosylated HEG1; heavy chain SEQ ID NO: 2, light chain SEQ ID NO: 4 (antibody, listed as Mus musculus)
heavy: MGWSSIILFLVATTTGVHSQVQLQQPGAELVRPGASVKLSCKASGFSFTTYWITWVKQRPGQGLEWIGMIHPSDSETRLSQTFKDKATLTVDKSSNTAYMQFSSPTSEDSAVYYCVRDFDVWGAGTTVTVSSAKTTPPSVYPLAPGSAAQTNSMVTLGCLVKGYFPEPVTVTWNSGSLSSGVHTFPAVLQSDLYTLSSSVTVPSSTWPSETVTCNVAHPASSTKVDKKIVPRDCGCKPCICTVPEVSSVFIFPPKPKDVLTITLTPKVTCVVVDISKDDPEVQFSWFVDDVEVHTAQTQPREEQFNSTFRSVSELPIMHQDWLNGKEFKCRVNSAAFPAPIEKTISKTKGRPKAPQVYTIPPPKEQMAKDKVSLTCMITDFFPEDITVEWQWNGQPAENYKNTQPIMDTDGSYFVYSKLNVQKSNWEAGNTFTCSVLHEGLHNHHTEKSLSHSPGK
light: MKLPVRLLVLMFWIPASISDVLMTQTPLSLPVSLGDQASISCRSSQNIVHNNGNTYLGWYLQKPGQSPKLLIFKVSNRFSGVPDRFSGSGSGTDFTLKISRVEAEDLGVYYCFQGSHIPRTFGGGTRLEIKRADAAPTVSIFPPSSEQLTSGGASVVCFLNNFYPKDINVKWKIDGSERQNGVLNSWTDQDSKDSTYSMSSTLTLTKDEYERHNSYTCEATHKTSTSPIVKSFNRNEC
Bone sarcoma (positive cases/cases) ([1]; chondrosarcoma and osteosarcoma): 0/20
Positive cases, epithelioid hemangioendothelioma ([1]; epithelioid hemangioendothelioma): 1/6
Other carcinomas (positive cases/cases) ([1]; gastric, colorectal, breast, ovarian, renal cell, urothelial carcinoma): 1/60
Positive cases, leiomyosarcoma ([1]; leiomyosarcoma): 1/10
Lung carcinoma (positive cases/cases) ([1]; lung carcinoma): 0/98
Specificity (%) ([1]; mesothelioma specificity over all non-mesothelioma tumors): 99.0%
Soft tissue sarcoma (positive cases/cases) ([1]; soft tissue sarcoma): 2/132
Positive cases, urothelial carcinoma ([1]; urothelial carcinoma): 1/10
Recognition of purified antigen band at approximately 400 kDa ([2]; Western blotting, antigen purified from ACC-MESO4): recognized
Reactivity with antigen after N-glycanase (PNGase F) treatment ([2]; dot blot): did not cause the antibody to lose the reactivity
Reactivity with antigen after Proteinase K treatment ([2]; dot blot): caused the antibody to lose the reactivity
Reactivity with antigen treated with neuraminidase ([2]; dot blot, HEG1 protein purified from ACC-MESO4, neuraminidase treatment): did not bind; also recorded: weakened
